{
  "source": "patent US6828106",
  "proteins": {"B1": {"name": "TEV (Tobacco Etch Virus) protease (protein)", "chain": "GESLFKGPRDYNPISSTICHLTNESDGHTTSLYGIGFGPFIITNKHLFRRNNGTLLVQSLHGVFKVKNTTTLQQHLIDGRDMIIIRMPKDFPPFPQKLKFREPQREERICLVTTNFQTKSMSSMVSDTSCTFPSSDGIFWKHWIQTKDGQCGSPLVSTRDGFIVGIHSASNFTNTNNYFTSVPKNFMELLTNQEAQQWVSGWRLNADSVLWGGHKVFMSKPEEPFQPVKEATQLMNELVYSQ"}},
  "biological_target": "T1, reporter peptide (Example 9, TEV) (not fully specified)",
  "T1 chain": "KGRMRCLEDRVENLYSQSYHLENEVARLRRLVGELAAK",
  "data": [
    {"protein": "B1", "values": [
      {"measurement": "Km of TEV protease by FP analysis", "result": 36, "unit": "µM"},
      {"measurement": "Km of TEV protease by FRET analysis", "result": 36, "unit": "µM"}
    ]}
  ]
}
